Several values for one entry are separate records, joined by “and”; a condition that tells them apart may be missing. Equal values may be shown once. Values belong to the binder of their own block, whether it stands above or below them.
What was measured:
SEC-MALS = molecular target: the molecule itself; assay: SEC-MALS
M1 (linear) GST-Ub2 = M1 (linear) GST-Ub2 (UniProt P0CG48); assay: BLI

B1: CEP55 His-NOA (His-tag version of the human CEP55 NOA fragment, residues 304–396) (domain or fragment)
chain: IQKLREENDIARGKLEEEKKRSEELLSQVQFLYTSLLKQQEEQTRVALLEQQMQACTLDFENEKLDRQHVQHQLHVILKELRKARNQITQLES
- fold weaker dimerization affinity than NEMO NOA (SEC-MALS): 6 fold
- stoichiometry N (SEC-MALS): 2 and 6

- Kd (M1 (linear) GST-Ub2): 1600 nM
Binder: ESLVECPKCNIQYPATEHRDLLVHVEYCSK [Strep-tag II CEP55 ZF (StrepII-tag version of CEP55 ZF peptide, residues 435–464)]

- fold reduction of binding affinity against WT (M1 (linear) GST-Ub2): 26 fold
Binder: ESLVECPKCNIQYPATEHRDLLVHVAYCSK [StrepII-tag version of CEP55 ZF mutant E460A]

— paper PMC6817665 (iScience, 2019)
